# Assay results as given in US20150203577A1 (Chugai, published 2015).
# Positions count from the first letter of the chain named.
# T1: mouse FcγRIII extracellular domain, C-terminal His tag (mouse, UniProt P08508 31-215)
# T1 construct: Whole entry named; also called mFcγRIII; mFcgRIII
# T1 chain: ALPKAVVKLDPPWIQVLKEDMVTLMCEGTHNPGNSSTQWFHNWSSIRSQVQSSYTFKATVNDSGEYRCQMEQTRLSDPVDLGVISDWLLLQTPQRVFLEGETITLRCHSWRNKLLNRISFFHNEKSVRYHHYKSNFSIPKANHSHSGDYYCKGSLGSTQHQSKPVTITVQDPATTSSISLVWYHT
# T2: mouse FcγRIII extracellular domain with C-terminal His tag (mouse, UniProt P08508 31-215)
# T2 construct: Made on the basis of NCBI NP-034318.2; also called mFcγRIII; mFcgRIII
# T2 chain: T1 chain
# T3: mouse FcγRII extracellular domain, C-terminal His tag (mouse, UniProt P08101 30-210)
# T3 construct: Whole entry named; also called mFcγRII; mFcgRII
# T3 sequence: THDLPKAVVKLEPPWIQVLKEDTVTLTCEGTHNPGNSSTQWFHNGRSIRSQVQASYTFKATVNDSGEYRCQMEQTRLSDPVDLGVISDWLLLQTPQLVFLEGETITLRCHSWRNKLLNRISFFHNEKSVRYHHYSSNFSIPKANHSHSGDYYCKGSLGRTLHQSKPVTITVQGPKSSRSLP
# B1: H237-MB476/MRAL-k0 (antibody, mouse IgG1, kappa)
# heavy: QVQLQESGPGLVKPSETLSLTCAVSGHSISHDHAWSWVRQPPGEGLEWIGFISYSGITNYNPSLQGRVTISRDNSKNTLYLQMNSLRAEDTAVYYCARSLARTTAMDYWGEGTLVTVSSAKTTPPSVYPLAPGSAAQTNSMVTLGCLVKGYFPEPVTVTWNSGSLSSGVHTFPAVLQSDLYTLSSSVTVPSSTWPSETVTCNVAHPASSTKVDKKIVPRDCGCKPCICQPNEVEEVFIFPPKPKDVLTITLTPKVTCVVVDISKDDPEVQFSWFVDDVEVHTAQTQPREEQFNSTFRSVSELPIMHQDWLNGKEFKCRVNSAAFPAPIEKTISKTKGRPKAPQVYTIPPPKEQMAKDKVSLTCMITDFFPEDITVEWQWNGQPAENYKNTQPIMDTDGSYFVYSKLNVQKSNWEAGNTFTCSVLHEGLHNHHTEKSLSHSPGK
# light: not shown
# notes: copies: 2 + 2
# B2: H237-MB528/MRAL-k0 (antibody, mouse IgG1, kappa)
# heavy: B1 heavy with S294L, A322D
# light: not shown
# notes: copies: 2 + 2
# B3: H237-MB527/MRAL-k0 (antibody, mouse IgG1, kappa)
# heavy: B1 heavy with S294L, N320D
# light: not shown
# notes: copies: 2 + 2
# B4: H237-MB531/MRAL-k0 (antibody, mouse IgG1, kappa)
# heavy: B1 heavy with N320D, K330R
# light: not shown
# notes: copies: 2 + 2
# B5: H237-MB529/MRAL-k0 (antibody, mouse IgG1, kappa)
# heavy: B1 heavy with S294L, K330R
# light: not shown
# notes: copies: 2 + 2
# B6: H237-MB526/MRAL-k0 (antibody, mouse IgG1, kappa)
# heavy: B1 heavy with S294L
# light: not shown
# notes: copies: 2 + 2
# B7: H237-MB530/MRAL-k0 (antibody, mouse IgG1, kappa)
# heavy: B1 heavy with N320D, A322D
# light: not shown
# notes: copies: 2 + 2
# B8: H237-mIgG1/MRAL-k0 (antibody)
# heavy: B1 heavy with Q229T, P230V, N231P, E234S, E235S
# light: not shown
# notes: copies: 2 + 2
# B9: H237-MB594/MRAL-k0 (antibody, mouse IgG1, kappa)
# heavy: B1 heavy with Q229E, P230V, N231P, V233E, E235S
# light: not shown
# notes: copies: 2 + 2
# B10: H237-MB693/MRAL-k0 (antibody, mouse IgG1, kappa)
# heavy: B1 heavy with Q229T, P230D, N231Y, E235Y
# light: not shown
# notes: copies: 2 + 2
# B11: H237-MB687/MRAL-k0 (antibody)
# heavy: B1 heavy with Q229E, N231P, E235L
# light: not shown
# notes: copies: 2 + 2
# B12: H237-MB702/MRAL-k0 (antibody, mouse IgG1, kappa)
# heavy: B1 heavy with Q229T, P230A, N231Y, E235N
# light: not shown
# notes: copies: 2 + 2
# B13: H237-MB692/MRAL-k0 (antibody, mouse IgG1, kappa)
# heavy: B1 heavy with Q229E, N231P, E235Y
# light: not shown
# notes: copies: 2 + 2
# B14: H237-MB698/MRAL-k0 (antibody, mouse IgG1, kappa)
# heavy: B1 heavy with Q229E, P230V, N231P, V233E, E235L
# light: not shown
# notes: copies: 2 + 2
# B15: H237-MB686/MRAL-k0 (antibody, mouse IgG1, kappa)
# heavy: B1 heavy with Q229E, P230V, N231A, E235L
# light: not shown
# notes: copies: 2 + 2
# B16: H237-MB703/MRAL-k0 (antibody, mouse IgG1, kappa)
# heavy: B1 heavy with Q229E, P230A, N231P, E235N
# light: not shown
# notes: copies: 2 + 2
# B17: H237-MB695/MRAL-k0 (antibody, mouse IgG1, kappa)
# heavy: B1 heavy with Q229T, E235F
# light: not shown
# notes: copies: 2 + 2
# B18: H237-MB690/MRAL-k0 (antibody, mouse IgG1, kappa)
# heavy: B1 heavy with Q229T, N231A, E235Y
# light: not shown
# notes: copies: 2 + 2
# B19: H237-MB691/MRAL-k0 (antibody, mouse IgG1, kappa)
# heavy: B1 heavy with Q229E, P230V, N231A, E235Y
# light: not shown
# notes: copies: 2 + 2
# B20: H237-MB696/MRAL-k0 (antibody, mouse IgG1, kappa)
# heavy: B1 heavy with Q229E, P230V, E235F
# light: not shown
# notes: copies: 2 + 2
# B21: H237-MB694/MRAL-k0 (antibody)
# heavy: B1 heavy with Q229E, P230D, N231P, E235Y
# light: not shown
# notes: copies: 2 + 2
# B22: H237-MB688/MRAL-k0 (antibody, mouse IgG1, kappa)
# heavy: B1 heavy with Q229T, P230V, N231Y, E235N
# light: not shown
# notes: copies: 2 + 2
# B23: H237-MB685/MRAL-k0 (antibody, mouse IgG1, kappa)
# heavy: B1 heavy with Q229T, N231A, E235L
# light: not shown
# notes: copies: 2 + 2
# B24: H237-MB689/MRAL-k0 (antibody, mouse IgG1, kappa)
# heavy: B1 heavy with Q229E, P230V, N231P, E235N
# light: not shown
# notes: copies: 2 + 2
# B25: H237-MB700/MRAL-k0 (antibody, mouse IgG1, kappa)
# heavy: B1 heavy with Q229E, P230V, N231P, V233E, E235Y
# light: not shown
# notes: copies: 2 + 2
# Target: T1, mouse FcγRIII extracellular domain, …
# Experiment: SPR (Biacore T200); KD of H237-mIgG1/MRAL-k0 / KD of variant
# Procedure: (§1) Each altered antibody was analyzed for its interaction with each Fcγ receptor prepared above using Biacore T100 (GE Healthcare Japan Corp.), Biacore T200 (GE Healthcare Japan Corp.), Biacore A100, or Biacore 4000. The running buffer used was HBS-EP+ (GE Healthcare Japan Corp.). The assay temperature was set to 25° C. The sensor chips used were chips prepared by immobilizing Protein L (ACTIGEN or BioVision) onto Series S Sensor Chip CM5 (GE Healthcare Japan Corp.) or Series S Sensor Chip CM4 (GE Healthcare Japan Corp.) by the amine coupling method.
# (§2) In order to calculate the KD value of each altered antibody for FcγR, kinetic analysis was conducted according to the following method: first, the antibody of interest was captured onto any of these chips and allowed to interact with mFcγR diluted with a running buffer. For the obtained sensorgram, the assay results were globally fit into the 1:1 Langmuir binding model using Biacore Evaluation Software to calculate an association rate constant ka (L/mol/s) and a dissociation rate constant kd (1/s). From these values, the dissociation constant KD (mol/L) was calculated.
row,Binder,relative mFcγRIII-binding activity (mIgG1 = 1) [fold]
1,B1,2.6
2,B2,14.6
3,B3,5.5
4,B4,3.3
5,B5,5.9
6,B6,8.5
7,B7,8

# Target: T2, mouse FcγRIII extracellular domain with …
# Experiment: SPR Biacore T200
row,Binder,Kd [nM]
1,B8,282

# Target: T2, mouse FcγRIII extracellular domain with …
# Experiment: SPR Biacore T200
# Remark: another data set of the same source
# Procedure: as §1, §2
row,Binder,Kd [nM]
1,B8,282

# Target: T3, mouse FcγRII extracellular domain, …
# Experiment: SPR (Biacore T200); KD of H237-mIgG1/MRAL-k0 / KD of variant
row,Binder,relative mFcγRII-binding activity (mIgG1 = 1) [fold]
1,B9,1.85

# Target: T1, mouse FcγRIII extracellular domain, …
# Experiment: as above
# Remark: another data set of the same source
row,Binder,relative mFcγRIII-binding activity (mIgG1 = 1) [fold]
1,B9,0.1

# Target: T3, mouse FcγRII extracellular domain, …
# Experiment: SPR (Biacore T200), 1:1 fit
# Procedure: as §1, §2
row,Binder,Kd [nM]
1,B1,0.804
2,B2,0.56
3,B3,0.768
4,B4,0.918
5,B5,0.745
6,B6,0.904
7,B7,0.337

# Target: T1, mouse FcγRIII extracellular domain, …
# Experiment: SPR (Biacore T200), 1:1 fit
# Procedure: as §1, §2
row,Binder,Kd [nM]
1,B1,107
2,B2,19.3
3,B3,51
4,B4,85
5,B5,47.6
6,B6,33
7,B7,35.1

# Target: T3, mouse FcγRII extracellular domain, …
# Experiment: SPR (Biacore T200); KD of H237-mIgG1/MRAL-k0 / KD of variant
# Remark: another data set of the same source
# Description: (§3) The antibody H chain variable region used was the variable region H237 (SEQ ID NO: 1) of the H chain VH3-IgG1 of the anti-IL-6 receptor antibody Fv4-IgG1 described in WO2009/125825. The antibody L chain commonly used was the L chain MRAL-k0 (SEQ ID NO: 2) of the anti-IL-6 receptor antibody tocilizumab. The aforementioned 7 variants were used as templates to substitute the amino acids at the alteration sites by the amino acids before the alteration. These variants were expressed and purified by the method of Reference Example 1 and evaluated for their binding to mFcγRII and mFcγRIII by the method of Reference Example 2 using Biacore T200.
# as §1
row,Binder,relative mFcγRII-binding activity (mIgG1 = 1) [fold]
1,B10,1.22
2,B11,0.943
3,B12,0.96
4,B13,1.75
5,B9,1.3
6,B14,0.194
7,B15,0.167
8,B16,0.943
9,B17,0.435
10,B18,1.6
11,B19,0.582
12,B20,0.4
13,B21,0.544
14,B22,0.634
15,B23,0.606
16,B24,0.413
17,B25,0.559

# Target: T1, mouse FcγRIII extracellular domain, …
# Experiment: as above
# Remark: another data set of the same source
# Description: as §3, §1
row,Binder,relative mFcγRIII-binding activity (mIgG1 = 1) [fold]
1,B10,0.094
2,B11,0.096
3,B12,0.145
4,B13,0.115
5,B9,0.057
6,B14,0.024
7,B15,0.052
8,B16,0.104
9,B17,0.088
10,B18,0.188
11,B19,0.071
12,B20,0.094
13,B21,0.031
14,B22,0.081
15,B23,0.093
16,B24,0.075
17,B25,0.044
